{"source": "the supplement of paper PMC10126150", "note": "± gives the standard deviation of the averaged measurements.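 Further: ATP exposure 15 min at 22 °C before imaging.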"}
{"system": "ATP", "test": "switch fluorescence ratio, 500 uM ATP over buffer (Cy3 cluster intensity, sum of 5 cycles each) (fold (ratio)); higher = stronger signal-on switching upon ATP binding; sequences stand for … in TCGTCGGCAGCGTCAGATGTGTATAAGAGACAGTTTTTTTTTTTTTTTTTTTTTTTTT…TC", "conditions": "aptamer strand: ATP DNA aptamer (quencher-CACCTGGGGGAGTATTGCGGAGGAAGG + anchor), 100 nM annealed; ATP concentration: 500 uM", "procedure,_shortened": "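For every switch-domain sequence, the fluorescence ratio is the mean of per-cluster values, each being summed target-cycle Cy3 intensity over summed buffer-cycle Cy3 intensity. Clusters outside 100-1000 RFU were excluded. On a modified Illumina MiSeq flow-cell, the Cy3-labelled switching-strand clusters were annealed to 100 nM quencher-labelled ATP aptamer, imaged in selection buffer and then after 15 min with 500 uM ATP at 22 °C. Five such cycles were run, with NaOH stripping and re-annealing between them.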"}
{"sequence": "TGGGCCGGTA", "switch fluorescence ratio": "1.02 ± 0.031"}
{"sequence": "TGGGCGATAG", "switch fluorescence ratio": "1.02 ± 0.027"}
{"sequence": "TGGGCGATAT", "switch fluorescence ratio": "1.95 ± 1.1"}
{"sequence": "TGGGCGCGGT", "switch fluorescence ratio": "0.975 ± 0.018"}
{"sequence": "TGGGCGGCTT", "switch fluorescence ratio": "0.97 ± 0.011"}
{"sequence": "TGGGCGGGAG", "switch fluorescence ratio": "0.993 ± 0.039"}
{"sequence": "TGGGCGGGAT", "switch fluorescence ratio": "1 ± 0.039"}
{"sequence": "TGGGCTGGCT", "switch fluorescence ratio": "1 ± 0.023"}
{"sequence": "TGGGCTTTGG", "switch fluorescence ratio": "0.9992 ± 0.009"}
{"sequence": "TGGGCTTTTT", "switch fluorescence ratio": "0.982 ± 0.041"}
{"sequence": "TGGGGAACAC", "switch fluorescence ratio": "0.995 ± 0.043"}
{"sequence": "TGGGGAACG", "switch fluorescence ratio": "0.9595 ± 0.006"}
{"sequence": "TGGGGAACGC", "switch fluorescence ratio": "1.01 ± 0.034"}
{"sequence": "TGGGGAAGAG", "switch fluorescence ratio": "1.02 ± 0.027"}
{"sequence": "TGGGGAAGGA", "switch fluorescence ratio": "0.99 ± 0.018"}
{"sequence": "TGGGGACAGC", "switch fluorescence ratio": "0.949 ± 0.027"}
{"sequence": "TGGGGACAGT", "switch fluorescence ratio": "1 ± 0.017"}
{"sequence": "TGGGGACTCC", "switch fluorescence ratio": "0.997 ± 0.032"}
{"sequence": "TGGGGACTGG", "switch fluorescence ratio": "1.04 ± 0.088"}
{"sequence": "TGGGGACTTA", "switch fluorescence ratio": "1.012 ± 0.0089"}
{"sequence": "TGGGGAGAAG", "switch fluorescence ratio": "0.994 ± 0.013"}
{"sequence": "TGGGGAGCAT", "switch fluorescence ratio": "1.01 ± 0.044"}
{"sequence": "TGGGGAGCTT", "switch fluorescence ratio": "0.99 ± 0.023"}
{"sequence": "TGGGGAGGAT", "switch fluorescence ratio": "0.974 ± 0.023"}
{"sequence": "TGGGGATTGC", "switch fluorescence ratio": "1.02 ± 0.048"}
{"sequence": "TGGGGCAACG", "switch fluorescence ratio": "0.979 ± 0.034"}
{"sequence": "TGGGGCCCTT", "switch fluorescence ratio": "1.04 ± 0.02"}
{"sequence": "TGGGGCGACG", "switch fluorescence ratio": "0.994 ± 0.034"}
{"sequence": "TGGGGCGGGA", "switch fluorescence ratio": "1.02 ± 0.08"}
{"sequence": "TGGGGCGGTT", "switch fluorescence ratio": "0.979 ± 0.024"}
{"sequence": "TGGGGCGTCG", "switch fluorescence ratio": "1 ± 0.037"}
{"sequence": "TGGGGCTAAG", "switch fluorescence ratio": "1.01 ± 0.034"}
{"sequence": "TGGGGCTATT", "switch fluorescence ratio": "1.02 ± 0.045"}
{"sequence": "TGGGGCTGTG", "switch fluorescence ratio": "0.991 ± 0.014"}
{"sequence": "TGGGGGAAAA", "switch fluorescence ratio": "0.986 ± 0.01"}
{"sequence": "TGGGGGACTT", "switch fluorescence ratio": "0.99 ± 0.039"}
{"sequence": "TGGGGGAGAT", "switch fluorescence ratio": "1.04 ± 0.1"}
{"sequence": "TGGGGGAGCC", "switch fluorescence ratio": "1.03 ± 0.041"}
{"sequence": "TGGGGGAGTA", "switch fluorescence ratio": "0.952 ± 0.018"}
{"sequence": "TGGGGGCACT", "switch fluorescence ratio": "0.982 ± 0.022"}
{"sequence": "TGGGGGCTAC", "switch fluorescence ratio": "1 ± 0.01"}
{"sequence": "TGGGGGGAAT", "switch fluorescence ratio": "1.03 ± 0.1"}
{"sequence": "TGGGGGGACG", "switch fluorescence ratio": "1.03 ± 0.086"}
{"sequence": "TGGGGGGAG", "switch fluorescence ratio": "1.0137 ± 0.00093"}
{"sequence": "TGGGGGGAGG", "switch fluorescence ratio": "1 ± 0.036"}
{"sequence": "TGGGGGGAGT", "switch fluorescence ratio": "1.01 ± 0.024"}
{"sequence": "TGGGGGGATG", "switch fluorescence ratio": "0.996 ± 0.011"}
{"sequence": "TGGGGGGGAC", "switch fluorescence ratio": "1.04 ± 0.069"}
{"sequence": "TGGGGGGGG", "switch fluorescence ratio": "1.01 ± 0.05"}
{"sequence": "TGGGGGGTAG", "switch fluorescence ratio": "0.988 ± 0.02"}
{"sequence": "TGGGGGTAGT", "switch fluorescence ratio": "0.99 ± 0.022"}
{"sequence": "TGGGGGTCGT", "switch fluorescence ratio": "1.02 ± 0.024"}
{"sequence": "TGGGGGTGGT", "switch fluorescence ratio": "1 ± 0.028"}
{"sequence": "TGGGGGTTGT", "switch fluorescence ratio": "0.987 ± 0.025"}
{"sequence": "TGGGGTAATC", "switch fluorescence ratio": "1.03 ± 0.07"}
{"sequence": "TGGGGTAGGA", "switch fluorescence ratio": "0.988 ± 0.029"}
{"sequence": "TGGGGTATAC", "switch fluorescence ratio": "1.02 ± 0.038"}
{"sequence": "TGGGGTATCT", "switch fluorescence ratio": "1 ± 0.019"}
{"sequence": "TGGGGTGACA", "switch fluorescence ratio": "1.01 ± 0.054"}
{"sequence": "TGGGGTGAGG", "switch fluorescence ratio": "1 ± 0.035"}
{"sequence": "TGGGGTGCCG", "switch fluorescence ratio": "1.12 ± 0.039"}
{"sequence": "TGGGGTGGTT", "switch fluorescence ratio": "1.03 ± 0.015"}
{"sequence": "TGGGGTTAAA", "switch fluorescence ratio": "0.997 ± 0.016"}
{"sequence": "TGGGGTTCGT", "switch fluorescence ratio": "0.998 ± 0.066"}
{"sequence": "TGGGGTTCTG", "switch fluorescence ratio": "0.9832 ± 0.0022"}
{"sequence": "TGGGGTTTAT", "switch fluorescence ratio": "1.01 ± 0.02"}
{"sequence": "TGGGGTTTGG", "switch fluorescence ratio": "0.984 ± 0.036"}
{"sequence": "TGGGTAAAAT", "switch fluorescence ratio": "0.971 ± 0.03"}
{"sequence": "TGGGTAAAGG", "switch fluorescence ratio": "0.956 ± 0.015"}
{"sequence": "TGGGTAAATT", "switch fluorescence ratio": "0.983 ± 0.014"}
{"sequence": "TGGGTAAGCA", "switch fluorescence ratio": "1.03 ± 0.023"}
{"sequence": "TGGGTAAGTT", "switch fluorescence ratio": "0.996 ± 0.039"}
{"sequence": "TGGGTACGTC", "switch fluorescence ratio": "0.998 ± 0.026"}
{"sequence": "TGGGTACTGG", "switch fluorescence ratio": "1.02 ± 0.018"}
{"sequence": "TGGGTAGATA", "switch fluorescence ratio": "0.985 ± 0.045"}
{"sequence": "TGGGTAGTGC", "switch fluorescence ratio": "0.997 ± 0.029"}
{"sequence": "TGGGTATAGA", "switch fluorescence ratio": "1.01 ± 0.032"}
{"sequence": "TGGGTATGTT", "switch fluorescence ratio": "1.02 ± 0.014"}
{"sequence": "TGGGTATTAT", "switch fluorescence ratio": "0.9997 ± 0.0052"}
{"sequence": "TGGGTCGGGG", "switch fluorescence ratio": "0.985 ± 0.016"}
{"sequence": "TGGGTGAAAA", "switch fluorescence ratio": "1.001 ± 0.0036"}
{"sequence": "TGGGTGAAGG", "switch fluorescence ratio": "0.999 ± 0.022"}
{"sequence": "TGGGTGATAA", "switch fluorescence ratio": "1.04 ± 0.048"}
{"sequence": "TGGGTGATGT", "switch fluorescence ratio": "0.996 ± 0.066"}
{"sequence": "TGGGTGCATT", "switch fluorescence ratio": "1.014 ± 0.0044"}
